How the values were obtained:
[1] = target: tubulin purified from Spodoptera Frugiperda Sf9 cells (fully tyrosinated; used as purified tubulin or polymerised microtubules)
[2] = target: human tubulin purified from HEK293 cells

B1: recombinant SVBP-VASH2 complex (protein)
chain 1: not shown
chain 2: MDPPARKEKTKVKESVSRVEKAKQKSAQQELKQRQRAEIYALNRVMTELEQQQFDEFCKQMQPPGE
detyrosination assay (western blot, relative optical density detyrosination/tubulin) [1]: SVBP-VASH2 complex strongly induced detyrosination in the assay | detyrosination assay (western blot, relative optical density detyrosination/tubulin) [2]: the fold induction of the tubulin detyrosination resulting from SVBP-VASH2 complex was significantly lower with human tubulin purified from HEK293 cells in comparison to the one obtained using Sf9 cells extracted tubulin

From patent publication US20210285024
